One block for each molecule: values may come before it.
Tests used:
TACI-1 [1] = target: T1, TACI-1 (Homo sapiens, UniProt O14836); experiment: NF-AT-driven secreted alkaline phosphatase reporter in TAg Jurkat T cells transfected with TACI-1; type: cell-based; parameters: expressed in transfected cells; host or cells: TAg Jurkat T cells, plasmid pBJ5-TACI-1; conditions: antibody-cross linked TACI-1 in TAg Jurkat T cells; CsA 100 ng/ml, FK506 500 pg/ml; EGTA increasing concentrations; CAML(1-146) co-transfected
T1 sequence (O14836 1-293): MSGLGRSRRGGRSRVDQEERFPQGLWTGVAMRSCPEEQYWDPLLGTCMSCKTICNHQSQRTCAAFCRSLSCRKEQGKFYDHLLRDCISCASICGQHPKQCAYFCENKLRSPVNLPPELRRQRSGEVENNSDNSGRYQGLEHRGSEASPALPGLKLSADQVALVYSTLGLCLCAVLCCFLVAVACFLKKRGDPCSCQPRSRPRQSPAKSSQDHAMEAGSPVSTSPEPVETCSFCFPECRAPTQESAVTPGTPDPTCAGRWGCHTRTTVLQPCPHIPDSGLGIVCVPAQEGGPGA
Method: FIG. 4. TACI-1 is a signaling protein that functions in the activation of NF-AT-specific transcription. FIG. 4A depicts the activation of an NF-AT-driven secreted alkaline phosphatase reporter. TAg Jurkat T cells, co-transfected with the SXNFAT reporter [Bram et al., Mol. Cell. Biol., 13:4760-4769 (1993)] and the expression plasmid pBJ5 [Takebe, Y, et al., Mol. Cell. Biol., 8:466-472 (1988)] containing either TACI-1-encoding cDNA (solid triangles) or nothing (circles), were treated with 50 ng/ml PMA and the indicated amounts of ionomycin in the presence (closed symbols) and absence (open symbols) of magnetic beads coated with immunoaffinity-purified anti-TACI-1 polyclonal antibodies. […] NF-AT activation was determined in TAg Jurkat T cells co-transfected with SXNFAT and pBJ5 (−TACI-1, left) or pBJ5-TACI-1 (+TACI-1, right), and treated with the indicated combinations of PMA (50 ng/ml), ionomycin (2 μM), CsA (100 ng/ml) and FK506 (500 pg/ml) in the presence of anti-TACI-1 antibody-coated beads (‘NS’, not stimulated). […] NF-AT activation was measured in the presence of EGTA in Jurkat T cells over expressing TACI-1. […] AP-1 activation was measured in TAg Jurkat T cells, co-transfected with a mouse metallothionein AP-1-SEAP reporter [Bram et al., 1991, supra] and pBJ5 containing no insert (−TACI-1, left) or TACI-1 cDNA (+TACI-1, right). […]

[2] = tested on: PMA plus ionomycin-induced NF-AT activity; experiment: PMA plus ionomycin-induced NF-AT activity in Jurkat T cells (specificity control); type: cell-based, human; conditions: co-transfection in Jurkat T cells
Method: To examine whether TACI-1 signaling depends on the association of TACI-1 with CAML. the interacting domain of CAML (residues 1-146) is tested to determine if it can inhibit TACI-1-induced NF-AT activation in a dominant negative fashion. […] CAML(1-146) lacks the hydrophobic transmembrane domains that are required for Ca^2+ influx activity [Holloway & Bram, Biol. Chem., 271:8549-8552 (1996)].

TACI-1 [3] = target: T1, TACI-1; experiment: Co-immunoprecipitation with FLAG-tagged TACI-1 from 293T cell lysates; type: binding; conditions: anti-FLAG agarose beads
Method: FIGS. 5A-5D. TACI-1 interaction with CAML is critical for Ca^2+ signaling. […] Full-length cDNAs and indicated deletion mutants of TACI-1 and CAML were cloned into the yeast expression plasmids pACT and/or pAS1, and the indicated combinations were tested for interaction with the yeast 2-hybrid system (‘+’, positive interaction; ‘−’, no interaction; ‘ND’, not done). FIG. 5D depicts the co-immunoprecipitation of CAML with TACI-1. 293T cells were transfected with the indicated combinations of the expression plasmid pBJ5 containing cDNAs for CAML. TACI-1 with an N-terminal FLAG tag, the N-terminal 146 amino acids of CAML (CLX91), or no insert. After incubation for 48 hours, the cells were lysed (1% dodecyl maltoside, 20 […] HEPES pH 7.4. 150 mM NaCl, 10% glycerol, 2 mM MgSO4, 1 mM CaCl2, 1 mM PMSF) and the lysate was clarified by centrifugation. FLAG-tagged TACI-1 and associated proteins were immunoprecipitated with anti-FLAG monoclonal antibody-conjugated agarose beads and subjected to Western transfer using standard protocols. […] NF-AT activation was determined in TAg Jurkat cells transfected with pBJ5 alone, pBJ5-TACI-1 plus the control plasmid, or pBJ5-TACI-1 with an equivalent amount of CLX91, following treatment with TACI-1-specific antibodies (top). TACI-1 expression in these transfections was determined by Western blot using anti-TACI-1 polyclonal antibodies (bottom). […]

effect on TACI-1-mediated NF-AT activation (TACI-1 [1]): inhibition
Molecule: O=C(O)CN(CCOCCOCCN(CC(=O)O)CC(=O)O)CC(=O)O [EGTA, reference compound]

co-immunoprecipitation with TACI-1 (TACI-1 [3]): co-immunoprecipitated
effect on TACI-1-mediated NF-AT activation (TACI-1 [1]): completely eliminates
B1: CAML(1-146): N-terminal 146 amino acids of CAML, expressed from plasmid; dominant negative inhibitor of TACI-1 signaling (protein, UniProt P49069 1-146, looked up, fragment)
chain: MESMAVATDGGERPGVPAGSGLSASQRRAELRRRKLLMNSEQRINRIMGFHRPGSGAEEESQTKSKQQDSDKLNSLSVPSVSKRVVLGDSVSTGTTDQQGGVAEVKGTQLGDKLDSFIKPPECSSDVNLELRQRNRGDLTADSVQR
effect on PMA plus ionomycin-induced NF-AT activity [2]: no inhibitory effect
